Data from the supplement of paper PMC10567573.

B1: RIPK4 (parent)
chain: AAWQGHLPIVKLLAKQPGVSVNAQ

Variants of: B1
Assay: protein stability index of a GFP-peptide fusion (GPS, HEK-293T) (PSI 1-6); higher = more stable
Details: c terminus: a fixed tail appended
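Further: lentivirally expressed fusions sorted by FACS into six bins by GFP to DsRed ratio, PSI derived from sequencing read proportions per bin multiplied by bin number.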

Protein stability index of substitutions, site by site:
L12: E 4.1 | S 3.75 | F 2.45 | C 2.75 | V 2.35 | Q 3.02 | I 2.4 | R 3.56 | Y 3.14 | M 1.88 | N 3.59 | D 4.08 | G 3.67 | A 3.04 | P 2.71 | T 3.25 | H 3.33 | W 1.33
K15: G 2.58 | F 2.26 | A 2.56 | Q 1.81 | D 3.15 | W 2.04 | E 2.73 | H 2.43 | C 1.67 | S 2.16 | M 2.11 | P 1.28 | R 2.06 | I 2.82 | T 2.88 | L 1.82 | N 3.56
K11: T 2.1 | H 2.15 | I 1.4 | C 3.38 | Y 1.94 | R 1.72 | M 2.13 | G 3 | P 3.07 | V 1.84 | N 2.4 | Q 2.35 | S 1.58 | E 3.62 | A 1.76
V10: N 2.1 | R 2.37 | Y 3.72 | Q 2.56 | H 2.34 | L 1.61 | G 2.36 | K 2.23 | E 3.71 | W 3.69 | D 2.74 | S 2.72 | M 2.64 | F 2.16 | T 2.78 | C 2.38 | P 2.75 | I 1.92
A14: S 2.72 | V 1.87 | P 3.28 | T 2.42 | G 2.72 | N 3.07 | Y 2.09 | M 2.07 | Q 2.14 | C 1.33 | I 1.67 | W 1.33 | D 3.75 | R 2.5 | H 2.13 | F 1.57 | K 3.17 | E 2.56
G18: A 2.67 | R 1.69 | I 2.01 | Y 2.08 | C 1.72 | T 2.54 | L 2.07 | F 1.51 | K 2.46 | M 1.61 | P 2.28 | W 1.36 | D 3.03 | N 2.07 | H 2.55 | Q 2.53 | V 1.92 | S 2.54
Q16: I 1.42 | D 3.25 | Y 1.97 | H 2.97 | M 2.22 | A 2.54 | R 2.26 | P 2.27 | S 2.56 | C 2 | L 2 | T 2.5 | N 2.95 | V 2.14 | E 3.78 | W 1.55 | K 2.77 | G 2.93
V19: R 3.3 | D 3.35 | S 3.22 | C 2.66 | L 2.04 | N 2.61 | K 2.73 | M 2.3 | P 3.08 | F 1.7 | H 2.65 | G 1.85
L13: S 2.85 | P 3.55 | H 2.5 | A 2.9 | R 3.09 | N 3.81 | C 2.86 | D 3.82 | F 2.39 | Q 4.64 | W 3.24 | I 2.82 | V 2.88 | E 4.25 | Y 2.94 | T 2.16 | K 2.86
P17: G 2.22 | L 2.58 | Q 2.37 | H 1.82 | F 1.53 | A 1.51 | T 1.83 | M 2.5 | Y 3.38 | C 1.92 | S 2.46 | N 2.54 | W 2.91 | D 2.15 | K 2.45 | E 3.58
